Reference: US20150147274A1 (CANCER RESEARCH TECHNOLOGY, published 2015)
One block for each molecule: values may come before it.

Tests used:
[1] = target: human MET (c-Met) on cells (SKOV-3, BxPC3) (human) (UniProt P08581); assay: cell-based or functional assay
[2] = target: MET928 (cMET protein derived from construct 25-928) (human) (UniProt P08581); assay: Biacore SPR, MET928-coated surface, 1:1 kinetic analysis
[3] = target: T1, MET928 (cMET protein derived from construct 25-928) (human, UniProt P08581 25-928); assay: Biacore SPR, MET-928 on chip, scFv format
T1 construct: MET ectodomain, residues 1-24 are the leader; produced in Lec 8 cells; background text says the ectodomain is furin-cleaved into alpha (25-307) and beta chains; biotinylated form used in selections; also called MET928 extracellular domain; Met extracellular domain
Protocol: (§1) The binding characteristics of 7A2 and its derivatives were measured using a GE Healthcare Biacore biosensor.

[4] = target: T2, human MET (c-Met) on cells (SKOV-3, BxPC3) (human, UniProt P08581 25-1390); assay: cell-based or functional assay
[5] = target: T1, MET928 (cMET protein derived from …); assay: Biacore SPR, MET-928 on chip, Fab format
Protocol: as §1

[6] = target: T2, human MET (c-Met) on cells (SKOV-3, …); assay: cell-based or functional assay; remark: listed apart in the source
[7] = target: T1, MET928 (cMET protein derived from …); assay: Biacore SPR, MET928-coated surface, 1:1 kinetic analysis
Source text: In FIG. 15, “hinged” His-tagged, IMAC-purified Fabs were used.

[8] = target: T3, MET567 (MET extracellular domain aa 25-567) (human, UniProt P08581 25-567); assay: analytical size exclusion chromatography (Superdex 200 10/300) [Cont.]
T3 construct: beta-propeller + cystine-rich domain
Protocol: Epitope location was analysed by analytical size exclusion chromatography. […] The mixtures were then centrifuged to remove any debris and analysed on a Superdex 200 10/300 size exclusion column (GE Life Sciences).

[9] = target: T1, MET928 (cMET protein derived from …); assay: Biacore SPR
[10] = target: T1, MET928 (cMET protein derived from …); assay: Biacore SPR, MET928-coated surface
Source text: Since scFv can multimerise, possibly complicating analysis, we also analysed the biological activity of monomeric 7A2 scFv. 8×His-tagged 7A2 scFv (Table 14) was expressed in P. pastoris induced with Methanol over 3 days. Conditioned media was concentrated using a Sartorius Slice Disposable (10 kD nominal molecular weight cut-off) and the scFv purified on a HisTrap column (GE Life Sciences). Monomeric 7A2 scFv (FIG. 11) was isolated by size exclusion using a Superdex 200 16/60 prep grade column (GE Life Sciences).

[11] = target: T1, MET928 (cMET protein derived from …); assay: SPR (Biacore), CM5 chip coated with MET928
[12] = target: T4, MET928.6H (hexahistine tagged MET928) (human, UniProt P08581 25-928); assay: plate binding assay: 100 nM MET928.6H added to NK1-coated microplate, bound MET detected with anti-5xHis and DELFIA Eu-N1 anti-mouse IgG (time-resolved fluorescence) [right panel]
T4 construct: also called MET ectodomain; not shown: hexahistidine tag
Protocol: FAb at 5-500 nM (FIG. 8) was mixed with 100 nM MET928.6H (hexahistine tagged MET928) and the mixture incubated at room temperature for one hour, prior to addition of the MET928.6H/FAb mixture to microplates coated with HGF/SF or the fragment NK1 and a further one-hour incubation. Bound MET928.6H was then detected with anti-5xHis (Qiagen) followed by DELFIA® Eu-N1 rabbit anti-mouse-IgG, exposure to DELFIA® enhancement solution and quantitation by time-resolved fluorescence on a Fusion instrument (Perkin Elmer).

MET928 (cMET protein derived from construct 25-928) (human), sequence (P08581 25-928): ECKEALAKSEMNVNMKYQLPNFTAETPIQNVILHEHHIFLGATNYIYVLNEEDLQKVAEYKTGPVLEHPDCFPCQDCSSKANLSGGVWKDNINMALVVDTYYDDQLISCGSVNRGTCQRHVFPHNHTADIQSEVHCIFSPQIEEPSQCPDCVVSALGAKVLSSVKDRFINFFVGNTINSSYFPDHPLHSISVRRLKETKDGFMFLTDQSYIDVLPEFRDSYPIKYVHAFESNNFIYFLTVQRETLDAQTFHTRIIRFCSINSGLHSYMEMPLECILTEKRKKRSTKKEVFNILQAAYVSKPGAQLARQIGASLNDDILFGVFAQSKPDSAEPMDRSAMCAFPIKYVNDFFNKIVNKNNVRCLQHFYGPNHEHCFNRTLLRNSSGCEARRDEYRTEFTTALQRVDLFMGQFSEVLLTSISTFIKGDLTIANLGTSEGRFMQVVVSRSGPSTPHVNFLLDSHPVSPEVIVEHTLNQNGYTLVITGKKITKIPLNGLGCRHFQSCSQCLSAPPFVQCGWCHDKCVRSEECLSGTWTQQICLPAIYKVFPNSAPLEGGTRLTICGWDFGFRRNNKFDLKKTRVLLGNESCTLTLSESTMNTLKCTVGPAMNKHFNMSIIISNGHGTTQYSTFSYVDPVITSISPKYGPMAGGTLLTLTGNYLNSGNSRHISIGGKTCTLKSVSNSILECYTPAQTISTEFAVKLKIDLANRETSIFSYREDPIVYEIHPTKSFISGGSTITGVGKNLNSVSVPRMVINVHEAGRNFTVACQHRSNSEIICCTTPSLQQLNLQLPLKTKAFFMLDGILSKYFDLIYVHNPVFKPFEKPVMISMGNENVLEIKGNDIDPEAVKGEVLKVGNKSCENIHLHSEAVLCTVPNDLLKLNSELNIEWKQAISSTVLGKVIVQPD
T1 sequence (P08581 25-928): as above
human MET (c-Met) on cells (SKOV-3, BxPC3) (human), sequence (P08581 25-1390): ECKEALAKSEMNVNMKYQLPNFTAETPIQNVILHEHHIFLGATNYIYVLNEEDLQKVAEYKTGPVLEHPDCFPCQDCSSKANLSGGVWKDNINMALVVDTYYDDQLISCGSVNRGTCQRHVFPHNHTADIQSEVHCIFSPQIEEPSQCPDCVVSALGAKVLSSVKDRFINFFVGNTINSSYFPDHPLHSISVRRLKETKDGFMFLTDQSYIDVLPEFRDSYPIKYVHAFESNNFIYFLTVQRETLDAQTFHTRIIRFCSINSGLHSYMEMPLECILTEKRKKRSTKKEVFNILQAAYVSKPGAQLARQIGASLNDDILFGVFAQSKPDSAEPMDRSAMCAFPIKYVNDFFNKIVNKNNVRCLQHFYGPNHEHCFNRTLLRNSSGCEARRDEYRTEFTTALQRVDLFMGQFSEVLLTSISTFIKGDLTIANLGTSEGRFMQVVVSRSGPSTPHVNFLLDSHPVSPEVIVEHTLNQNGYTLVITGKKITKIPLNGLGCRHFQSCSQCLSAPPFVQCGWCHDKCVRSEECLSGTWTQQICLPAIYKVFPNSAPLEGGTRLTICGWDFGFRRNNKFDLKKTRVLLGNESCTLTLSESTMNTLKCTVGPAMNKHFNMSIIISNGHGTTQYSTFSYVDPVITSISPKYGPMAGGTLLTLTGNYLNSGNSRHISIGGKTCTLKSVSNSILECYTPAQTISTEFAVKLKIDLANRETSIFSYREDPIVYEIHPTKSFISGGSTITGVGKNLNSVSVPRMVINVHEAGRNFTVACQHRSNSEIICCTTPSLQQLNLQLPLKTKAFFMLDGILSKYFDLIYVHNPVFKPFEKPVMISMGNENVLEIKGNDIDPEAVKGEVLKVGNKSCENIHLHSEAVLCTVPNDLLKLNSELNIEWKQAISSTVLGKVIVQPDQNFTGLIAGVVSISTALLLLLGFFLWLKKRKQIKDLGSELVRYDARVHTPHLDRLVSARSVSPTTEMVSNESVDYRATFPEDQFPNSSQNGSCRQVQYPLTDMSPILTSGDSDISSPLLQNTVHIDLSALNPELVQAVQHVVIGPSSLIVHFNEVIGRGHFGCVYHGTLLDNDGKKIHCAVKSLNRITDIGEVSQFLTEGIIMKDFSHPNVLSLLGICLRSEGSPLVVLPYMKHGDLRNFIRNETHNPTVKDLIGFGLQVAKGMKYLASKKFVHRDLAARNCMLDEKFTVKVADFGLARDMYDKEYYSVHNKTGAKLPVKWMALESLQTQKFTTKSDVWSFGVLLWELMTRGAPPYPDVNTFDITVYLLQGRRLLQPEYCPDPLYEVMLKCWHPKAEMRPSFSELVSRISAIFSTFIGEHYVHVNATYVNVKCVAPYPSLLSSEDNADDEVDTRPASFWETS
T2 sequence (P08581 25-1390): as above
T3 sequence (P08581 25-567): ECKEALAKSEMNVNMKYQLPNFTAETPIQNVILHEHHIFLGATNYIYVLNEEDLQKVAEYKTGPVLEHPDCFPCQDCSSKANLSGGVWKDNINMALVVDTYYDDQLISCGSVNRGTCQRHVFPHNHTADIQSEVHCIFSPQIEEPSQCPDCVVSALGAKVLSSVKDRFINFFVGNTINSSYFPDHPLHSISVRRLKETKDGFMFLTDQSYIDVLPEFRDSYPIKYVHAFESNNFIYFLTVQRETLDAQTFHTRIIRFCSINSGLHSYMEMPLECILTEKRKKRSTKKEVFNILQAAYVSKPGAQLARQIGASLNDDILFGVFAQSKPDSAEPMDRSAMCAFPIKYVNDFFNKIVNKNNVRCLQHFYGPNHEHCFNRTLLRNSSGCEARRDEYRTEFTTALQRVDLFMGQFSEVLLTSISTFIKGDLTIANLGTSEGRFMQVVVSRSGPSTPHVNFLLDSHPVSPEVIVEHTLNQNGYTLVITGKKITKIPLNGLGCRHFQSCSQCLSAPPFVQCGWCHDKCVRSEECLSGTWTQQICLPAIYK
T4 sequence (P08581 25-928): as the sequence (P08581 25-928) above

Molecule: 5D5 scFv
IC50 (nM), inhibition of HGF/SF-induced migration of SKOV-3 cells, Assay 1 [1]: 116 nM
IC50 (nM), inhibition of HGF/SF-induced migration of SKOV-3 cells, Assay 2 [1]: 83.6 nM
IC50 (nM), inhibition of HGF/SF-induced migration of SKOV-3 cells, Mean [1]: 99.6 nM

Molecule: 5D5 Fab (His-tagged)
Kd [2]: 6.9 nM
koff [2]: 0.00081 s⁻¹
kon [2]: 120000 M⁻¹ s⁻¹
Fab concentration (nanomolar) giving 50% inhibition of HGF/SF-induced SKOV-3 migration, MEAN [1]: 101 nM
Fab concentration (nanomolar) giving 50% inhibition of HGF/SF-induced SKOV-3 migration, MEDIAN [1]: 91 nM

B1: 7A2 scFv (expressed in E. coli, 6xHis/tri-Flag tags) (scFv)
scFv: QMQLVQSGAEVKKPGAPVKVSCKVSGYTFTDYYMHWVQQAPGKGLEWMGLVDPEDGETIYAEKFQGRVTITADTSTDTAYMELSSLRSEDTAVYYCATDATTPYYGMDVWGQGTLVTVSSLEGGGGSGGGGSGGGASDIQMTQSPSSLSASVGDRVTITCQASQDISNYLNWYQQKPGRAPKVLIYDASNLETGVPSRFSGSGSGTEFTLTISNLRPDDFATYYCQQGDSFPLTFGGGTKVEIK
notes: also called 084-G02; antibody 7A2; not shown: 6xHis/tri-FLAG tags of pSANG10-3F
Kd [3]: 12.3 nM
koff [3]: 0.646 s⁻¹
kon [3]: 5.25e+07 M⁻¹ s⁻¹
IC50 (nM), inhibition of HGF/SF-induced migration of SKOV-3 cells, Assay 1 [4]: 2.1 nM
IC50 (nM), inhibition of HGF/SF-induced migration of SKOV-3 cells, Assay 2 [4]: 2.5 nM
IC50 (nM), inhibition of HGF/SF-induced migration of SKOV-3 cells, Mean [4]: 2.3 nM

B2: 107_A07 Fab (His/tri-FLAG tagged, hinged) (Fab, V domains shown)
VH: QMQLVQSGAEVKKPGAPVKVSCKVSGYTFTDYYMHWVQQAPGKGLEWMGLVDPEDGETIYAEKFQGRVTITADTSTDTAYMELSSLRSEDTAVYYCATDATTPYWGMMWWGQGTLVTVSS
VL: DIQMTQSPSSLSASVGDRVTITCQASQDISNYLNWYQQKPGRAPKVLIYDASNLETGVPSRFSGSGSGTEFTLTISNLRPDDFATYYCQQGDSFPLTFGGGTKVEIK
notes: Fab from pBIOCAM7-3F in HEK293 cells, hinged format (Leu-Glu after VH), hexahistidine and tri-FLAG tags on the heavy chain
Kd [5]: 1.23 nM
koff [5]: 0.00116 s⁻¹
kon [5]: 949000 M⁻¹ s⁻¹
IC50, inhibition of HGF/SF-induced migration of SKOV-3 cells, Assay 1 [6]: 9.7 nM
IC50, inhibition of HGF/SF-induced migration of SKOV-3 cells, Assay 2 [6]: 9.2 nM
IC50, inhibition of HGF/SF-induced migration of SKOV-3 cells, Assay 3 [6]: 3.1 nM
Mean IC50, inhibition of HGF/SF-induced migration of SKOV-3 cells [6]: 7.4 nM

B3: 107_A07 Fab (tagless, native, i.e. not hinged) (Fab, V domains shown)
VH: QMQLVQSGAEVKKPGAPVKVSCKVSGYTFTDYYMHWVQQAPGKGLEWMGLVDPEDGETIYAEKFQGRVTITADTSTDTAYMELSSLRSEDTAVYYCATDATTPYWGMMWWGQGTLVTVSS
VL: DIQMTQSPSSLSASVGDRVTITCQASQDISNYLNWYQQKPGRAPKVLIYDASNLETGVPSRFSGSGSGTEFTLTISNLRPDDFATYYCQQGDSFPLTFGGGTKVEIKR
Kd [7]: 4.2 nM
koff [7]: 0.0075 s⁻¹
kon [7]: 1.8e+06 M⁻¹ s⁻¹
binding result [8]: no binding (tested: 6 µM Fab with 4 µM MET567)

B4: 7A2 Fab (tagless, hinged) (Fab, V domains shown)
VH: QMQLVQSGAEVKKPGAPVKVSCKVSGYTFTDYYMHWVQQAPGKGLEWMGLVDPEDGETIYAEKFQGRVTITADTSTDTAYMELSSLRSEDTAVYYCATDATTPYYGMDVWGQGTLVTVSS
VL: DIQMTQSPSSLSASVGDRVTITCQASQDISNYLNWYQQKPGRAPKVLIYDASNLETGVPSRFSGSGSGTEFTLTISNLRPDDFATYYCQQGDSFPLTFGGGTKVEIKR
notes: Purified on KappaSelect; also called Tagless 7A2
Kd [9]: 181 nM
koff [9]: 0.108 s⁻¹
kon [9]: 597000 M⁻¹ s⁻¹
binding result [8]: no binding (tested: 6 µM Fab with 4 µM MET567)

B6: 107_A08 Fab (His/tri-FLAG tagged, hinged) (Fab, V domains shown)
VH: QMQLVQSGAEVKKPGAPVKVSCKVSGYTFTDYYMHWVQQAPGKGLEWMGLVDPEDGETIYAEKFQGRVTITADTSTDTAYMELSSLRSEDTAVYYCATDATTPYWGMVEWGQGTLVTVSS
VL: DIQMTQSPSSLSASVGDRVTITCQASQDISNYLNWYQQKPGRAPKVLIYDASNLETGVPSRFSGSGSGTEFTLTISNLRPDDFATYYCQQGDSFPLTFGGGTKVEIK
notes: Fab from pBIOCAM7-3F, hinged, hexahistidine and tri-FLAG tags on the heavy chain
Kd [5]: 2.29 nM
koff [5]: 0.00192 s⁻¹
kon [5]: 838000 M⁻¹ s⁻¹
IC50, inhibition of HGF/SF-induced migration of SKOV-3 cells, Assay 1 [6]: 10.5 nM
Mean IC50, inhibition of HGF/SF-induced migration of SKOV-3 cells [6]: 10.5 nM

Results, then the molecule that gave them:

Kd [5]: 1.23 nM
koff [5]: 0.00137 s⁻¹
kon [5]: 1.12e+06 M⁻¹ s⁻¹
IC50, inhibition of HGF/SF-induced migration of SKOV-3 cells, Assay 1 [6]: 9.6 nM
IC50, inhibition of HGF/SF-induced migration of SKOV-3 cells, Assay 2 [6]: 27 nM
IC50, inhibition of HGF/SF-induced migration of SKOV-3 cells, Assay 3 [6]: 2.6 nM
Mean IC50, inhibition of HGF/SF-induced migration of SKOV-3 cells [6]: 13.1 nM
B5: 110_A01 Fab (His/tri-FLAG tagged, hinged) (Fab, V domains shown)
VH: QMQLVQSGAEVKKPGAPVKVSCKVSGYTFTDYYMHWVQQAPGKGLEWMGLVDPEDGETIYAEKFQGRVTITADTSTDTAYMELSSLRSEDTAVYYCATDATTPYWFPYLWGQGTLVTVSS
VL: DIQMTQSPSSLSASVGDRVTITCQASQDISNYLNWYQQKPGRAPKVLIYDASNLETGVPSRFSGSGSGTEFTLTISNLRPDDFATYYCQQGDSFPLTFGGGTKVEIK
notes: as for B6

Kd [10]: 3.62 nM
koff [10]: 0.00212 s⁻¹
kon [10]: 586000 M⁻¹ s⁻¹
B7: monomeric 7A2 scFv (8xHis-tagged, expressed in P. pastoris) (scFv)
scFv: EAEAQMQLVQSGAEVKKPGAPVKVSCKVSGYTFTDYYMHWVQQAPGKGLEWMGLVDPEDGETIYAEKFQGRVTITADTSTDTAYMELSSLRSEDTAVYYCATDATTPYYGMDVWGQGTLVTVSSLEGGGGSGGGGSGGGASDIQMTQSPSSLSASVGDRVTITCQASQDISNYLNWYQQKPGRAPKVLIYDASNLETGVPSRFSGSGSGTEFTLTISNLRPDDFATYYCQQGDSFPLTFGGGTKVEIKRPRHHHHHHHH
notes: Monomer isolated by size exclusion chromatography

binding result [11]: binds
binding result [12]: binds
B8: NK1 fragment of HGF/SF (produced in Pichia pastoris) (ligand)
chain: EAEAYVEGQRKRRNTIHEFKKSAKTTLIKIDPALKIKTKKVNTADQCADRCTRNKGLPFTCKAFVFDKARKQCLWFPFNSMSSGVKKEFGHEFDLYENKDYIRNCIIGKGRSYKGTVSITKSGIKCQPWSSMIPHEHSFLPSSYRGKDLQENYCRNPRGEEGGPWCFTSNPEVRYEVCDIPQCSEVE
notes: The first two (EA) or four (EAEA) amino acids may be removed during processing; also called NK1.B1; NK1.B2
